Laboratory results as given in article PMC5856381 (2018).

Columns and labels:
[1] = target: T1, hemoglobin (Hb), human, cell-free (human, UniProt P69905 1-142; P68871 1-147); test: SPR
[2] = target: T1, hemoglobin (Hb), human, cell-free; test: SPR; remark: listed apart in the source

T1 sequence (P69905 whole entry, chain 1 of 2): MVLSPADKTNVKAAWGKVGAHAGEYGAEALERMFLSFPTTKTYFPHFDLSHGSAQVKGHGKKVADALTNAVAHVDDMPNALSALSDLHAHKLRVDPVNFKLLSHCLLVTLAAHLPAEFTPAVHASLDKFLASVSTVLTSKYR
T1 sequence (P68871 whole entry, chain 2 of 2): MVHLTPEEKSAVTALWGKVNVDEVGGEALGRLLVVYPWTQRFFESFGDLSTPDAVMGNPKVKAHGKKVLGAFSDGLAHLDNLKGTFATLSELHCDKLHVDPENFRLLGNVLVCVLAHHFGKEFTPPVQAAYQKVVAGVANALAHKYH

Kd [1]: < 0.042 nM | koff [2]: < 5e-05 s⁻¹
B1: recombinant haptoglobin Hp1F, C1r-LP processed (natural protein)
chain 1: VDSGNDVTDIADDGCPKPPEIAHGYVEHSVRYQCKNYYKLRTEGDGVYTLNDKKQWINKAVGDKLPECEAVCGKPKNPANPVQ
chain 2: ILGGHLDAKGSFPWQAKMVSHHNLTTGATLINEQWLLTTAKNLFLNHSENATAKDIAPTLTLYVGKKQLVEIEKVVLHPNYSQVDIGLIKLKQKVSVNERVMPICLPSKDYAEVGRVGYVSGWGRNANFKFTDHLKYVMLPVADQDQCIRHYEGSTVPEKKTPKSPVGVQPILNEHTFCAGMSKYQEDTCYGDAGSAFAVHDLEEDTWYATGILSFDKSCAVAEYGVYVKVTSIQDWVQKTIAEN
modifications: Hp1F built from the first (F) repeat of Hp2FS (mature Asp52/Lys53 = precursor D70/K71); C1r-LP cleaves after R161 (Arg omitted from alpha chain per UniProt convention); alpha-beta and inter-alpha disulfides; N-glycosylated; C-terminal 8xHis tag omitted
